Data taken from patent US8309072B2, “Irreversibly-inactivated pepsinogen fragments for modulating immune function” (The Zhabilov Trust, priority 2004, dated 2012).
“Also recorded” adds a separate entry of the source. Where no end group is shown, it is not given here.

How the values were obtained:
[1] = biological target: gp96 (Homo sapiens, UniProt P14625); experiment: In vitro binding of IPF with heat shock protein gp96
From the text: FIG. 9 is a graph showing binding of an IPF with heat shock protein gp96 at dilutions of IPF 1/2500, IPF 1/500 and IPF 1/100, according to one embodiment of the present invention. A number of approaches may be used to detect complexing between IPF and gp96. By way of example, one such approach may be to obtain specific antibodies against IPF and gp96 and to build a sandwich immunoassay by suitable methods known in the art to detect the presence of these protein complexes. To detect binding of gp96 to IPF, the antigen may be coated on a plate to capture proteins from the sample and then report the binding with a specific detection antibody. The secondary (or detection) antibody may be directly labeled with MSD SULFO-TAG NHS ester or a SULFO-TAG-labeled anti-species, e.g., anti-mouse if the […] antibody is raised in mouse and the […] antibody is raised in a different species than the capture or primary antibody. Antibodies specific to IPF-gp96 complexes may also be used.

[2] = biological target: human CD4 (Homo sapiens, UniProt P01730); experiment: Biacore (SPR) binding of IPF to human CD4; conditions: in vitro
Method: (§1) BIACORE assays were used for binding affinity. This technology measures mass concentration of biomolecules close to a surface. The surface is made specific by attaching one of the interacting partners. Sample containing the other partner(s) flows over the surface: when molecules from the sample bind to the interactant attached to the surface, the local concentration changes and an SPR (surface plasmon resonance) response is measured. The response is directly proportional to the mass of molecules that bind to the surface. The SPR response may be expressed by resonance units (RU). One RU represents change of 0.0001 in the angle of the intensity minimum which is equivalent to a change in concentration of […].
(§2) The exact conversion factor between RU and surface concentration depends on properties of the sensor surface and the nature of the molecule responsible for the concentration change.
(§3) The assays for these bindings were conducted by The Institute for Molecular Medicine using standard protocols.
The BIACORE biosensor instrument for detecting compound ligand interaction. BIACORE may capture proteins including molecules from ctyosolic or tissue extracts on sensor surfaces and measure the binding kinetics. SPR is an optical technique that measures the refractive index change occurring at the sensor liquid-fluid interface layer. […]

[3] = Biacore (SPR) binding of IPF to human serum; conditions: in vitro
Method: as §1, §2, §3

[4] = stated in contrast to IPF; cited from earlier work

gp96, sequence (P14625 22-803): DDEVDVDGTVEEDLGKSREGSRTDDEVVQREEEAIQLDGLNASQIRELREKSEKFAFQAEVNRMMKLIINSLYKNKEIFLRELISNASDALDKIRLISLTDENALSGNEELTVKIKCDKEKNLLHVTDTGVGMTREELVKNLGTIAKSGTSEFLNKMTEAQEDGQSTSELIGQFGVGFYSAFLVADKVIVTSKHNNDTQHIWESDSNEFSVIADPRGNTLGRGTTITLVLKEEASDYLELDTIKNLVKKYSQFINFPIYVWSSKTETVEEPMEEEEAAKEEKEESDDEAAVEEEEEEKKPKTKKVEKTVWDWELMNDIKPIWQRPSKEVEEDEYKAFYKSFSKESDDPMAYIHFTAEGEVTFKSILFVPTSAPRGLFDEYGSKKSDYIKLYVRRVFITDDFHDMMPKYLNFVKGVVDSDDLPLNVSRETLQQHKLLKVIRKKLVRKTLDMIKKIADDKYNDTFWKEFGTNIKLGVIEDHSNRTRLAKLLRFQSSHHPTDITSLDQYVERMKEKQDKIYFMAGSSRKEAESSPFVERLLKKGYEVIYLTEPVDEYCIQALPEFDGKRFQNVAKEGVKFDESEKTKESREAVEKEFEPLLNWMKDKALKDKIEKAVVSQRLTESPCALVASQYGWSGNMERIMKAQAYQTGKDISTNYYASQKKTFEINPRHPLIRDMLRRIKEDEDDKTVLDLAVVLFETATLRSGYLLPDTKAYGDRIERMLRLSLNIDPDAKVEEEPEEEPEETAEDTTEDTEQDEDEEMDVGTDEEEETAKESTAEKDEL

Substance | in vitro binding affinity for gp96 [1] | further results
IPF-3: peptide of SEQ ID NO 3, NXVPVSVEGYXQITLDSITX, fragment of approximately 13.5 kDa from porcine pepsinogen (not fully specified; X: residue not identified in the source; listed as Sus scrofa) | significant in vitro binding affinity | –
IPF-1: peptide of SEQ ID NO 1, TLTSGGGAIALPPSMAAPPLGPVAPLTGAIHAPTXG, fragment of approximately 45 kDa from porcine pepsinogen (not fully specified; X: residue not identified in the source; listed as Sus scrofa) | significant in vitro binding affinity | –
IPF-2: peptide of SEQ ID NO 2, TLSTATGGAIPPVAAMPPGLVAPTHGPAIHP, from porcine pepsinogen (listed as Sus scrofa) | significant in vitro binding affinity | –
IPF-6: antiviral peptide characterized by SEQ ID NO 6, GDEPLENYLDTEYF, isolated from 45 kDa band of porcine pepsinogen preparation (listed as Sus scrofa) | – | binding with human CD4+ cells [2]: significant in vitro binding affinity; also recorded: demonstrates binding in vitro; binding with human serum [3]: demonstrates binding in vitro
IPF-5: peptide of SEQ ID NO 5, CCATSGPCGAVMILTPHLTA, from porcine pepsinogen (listed as Sus scrofa) | significant in vitro binding affinity | –
Pepsin: porcine pepsin A, the starting material, compared for pI | – | pI [4]: low
IPF-4: peptide of SEQ ID NO 4, MTLTTGSGAIAPAMPPGLPPHTGAIHAPM, from porcine pepsinogen (listed as Sus scrofa) | significant in vitro binding affinity | –
